Reference: publication doi:10.1101/2020.06.06.138156 (bioRxiv, 2020)

Biological target: T1, GST-His-hnRNP L RRM2 (162-321) (human, UniProt P14866 162-321)
T1 sequence: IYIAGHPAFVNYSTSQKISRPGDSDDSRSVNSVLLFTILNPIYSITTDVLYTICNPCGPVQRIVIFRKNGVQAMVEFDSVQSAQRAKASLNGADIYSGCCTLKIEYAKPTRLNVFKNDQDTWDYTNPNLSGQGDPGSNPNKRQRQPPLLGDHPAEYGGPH
Assay: pull-down

B1: FLAG-SETD2 SHI (2114-2263) (domain or fragment)
chain: NKLSTEERRKLFEQEVAQREAQKQQQQMQNLGMTSPLPYDSLGYNAPHHPFAGYPPGYPMQAYVDPSNPNAGKVLLPTPSMDPVCSPAPYDHAQPLVGHSTEPLSAPPPVPVVPHVAAPVEVSSSQYVAQSDGVVHQDSSVAVLPVPAPG
- binding result: binds
